In patent US20240083958A1, “G PROTEIN PEPTIDOMIMETICS” (VRIJE UNIVERSITEIT BRUSSEL, priority 2020, published 2024):
Like-named read-outs stand apart in the source and are kept apart here. Bridge positions count the residues as written; N and C are the ends. Square brackets hold non-standard residues; d marks the D form. Primed or numbered codes have the meaning given here. Azk = residue with azidated side chain, clicked to Pra; Pra′ = residue with alkynyl side chain, clicked to Azk; R5 = C=CCCC[C@@](C)(N)C(=O)O; S5 = C=CCCC[C@](C)(N)C(=O)O

Tests used:
Assay in all cases: cell-based or functional assay
[1] = biological target: T1, human β2AR (human, UniProt P07550 2-365)
[2] = biological target: T1, human β2AR; remark: listed apart in the source
[3] = biological target: T1, human β2AR; remark: listed apart in the source
[4] = biological target: T1, human β2AR; remark: listed apart in the source
[5] = biological target: T1, human β2AR; remark: listed apart in the source
[6] = biological target: T1, human β2AR; remark: listed apart in the source
[7] = biological target: T1, human β2AR; remark: listed apart in the source

B1: compound 4 (peptide)
peptide: FNDCRDEIQRKHLRQYELL
HELM: PEPTIDE1{F.N.D.C.R.D.E.I.Q.R.K.H.L.R.Q.Y.E.L.L}$PEPTIDE1,PEPTIDE1,7:R3-11:R3$$$V2.0
SMILES: CC[C@H](C)[C@@H]1NC(=O)[C@@H](NC(=O)[C@H](CC(=O)O)NC(=O)[C@H](CCCNC(=N)N)NC(=O)[C@H](CS)NC(=O)[C@H](CC(=O)O)NC(=O)[C@H](CC(N)=O)NC(=O)[C@@H](N)Cc2ccccc2)CCC(=O)NCCCC[C@@H](C(=O)N[C@@H](Cc2c[nH]cn2)C(=O)N[C@@H](CC(C)C)C(=O)N[C@@H](CCCNC(=N)N)C(=O)N[C@@H](CCC(N)=O)C(=O)N[C@@H](Cc2ccc(O)cc2)C(=O)N[C@@H](CCC(=O)O)C(=O)N[C@@H](CC(C)C)C(=O)N[C@@H](CC(C)C)C(=O)O)NC(=O)[C@H](CCCNC(=N)N)NC(=O)[C@H](CCC(N)=O)NC1=O
In the case of B1, the “Shift (averaged)” value [1] is reported as 4, the “IC50 (nM) of isoproterenol, [3H]-DHA RLA, peptidomimetic present” value (shortened to “IC50 (nM) of isoproterenol, [3H]-DHA RLA”) [2] is reported as 202 nM and the Shift [2] is reported as 4.

B2: compound 7 (peptide)
peptide: H-FNDCRD[S5]IQR[S5]HLRQYELL-OH
modifications: staple 7-11
SMILES: CC[C@H](C)[C@@H]1NC(=O)[C@@](C)(NC(=O)[C@H](CC(=O)O)NC(=O)[C@H](CCCNC(=N)N)NC(=O)[C@H](CS)NC(=O)[C@H](CC(=O)O)NC(=O)[C@H](CC(N)=O)NC(=O)[C@@H](N)Cc2ccccc2)CCCC=CCCC[C@@](C)(C(=O)N[C@@H](Cc2c[nH]cn2)C(=O)N[C@@H](CC(C)C)C(=O)N[C@@H](CCCNC(=N)N)C(=O)N[C@@H](CCC(N)=O)C(=O)N[C@@H](Cc2ccc(O)cc2)C(=O)N[C@@H](CCC(=O)O)C(=O)N[C@@H](CC(C)C)C(=O)N[C@@H](CC(C)C)C(=O)O)NC(=O)[C@H](CCCNC(=N)N)NC(=O)[C@H](CCC(N)=O)NC1=O
B2 was tested, and the “Shift (averaged)” value [1] was 2, the “IC50 (nM) of isoproterenol, [3H]-DHA RLA” value [3] was 417 nM and the Shift [3] was 2.

B3: compound 9 (peptide)
peptide: FNDCRDXIQRXHLRQYELL
HELM: PEPTIDE1{[ac].F.N.D.C.R.D.[C#CC[C@H](N[*:1])C(=O)[*:2]].I.Q.R.[[N-]=[N+]=NCCCC[C@H](N[*:1])C(=O)[*:2]].H.L.R.Q.Y.E.L.L}$$$$V2.0
SMILES: C#CC[C@H](NC(=O)[C@H](CC(=O)O)NC(=O)[C@H](CCCNC(=N)N)NC(=O)[C@H](CS)NC(=O)[C@H](CC(=O)O)NC(=O)[C@H](CC(N)=O)NC(=O)[C@H](Cc1ccccc1)NC(C)=O)C(=O)N[C@H](C(=O)N[C@@H](CCC(N)=O)C(=O)N[C@@H](CCCNC(=N)N)C(=O)N[C@@H](CCCCN=[N+]=[N-])C(=O)N[C@@H](Cc1c[nH]cn1)C(=O)N[C@@H](CC(C)C)C(=O)N[C@@H](CCCNC(=N)N)C(=O)N[C@@H](CCC(N)=O)C(=O)N[C@@H](Cc1ccc(O)cc1)C(=O)N[C@@H](CCC(=O)O)C(=O)N[C@@H](CC(C)C)C(=O)N[C@@H](CC(C)C)C(=O)O)[C@@H](C)CC
For B3, the “Shift (averaged)” value [1] was 4, the “IC50 (nM) of isoproterenol, [3H]-DHA RLA” value [4] was 211 nM and the Shift [4] was 4.

For Ac-FNDCRDEIQRKHLRQYELL-OH (lactam 7-11) [compound 5], the “Shift (averaged)” value [1] was 4, the “IC50 (nM) of isoproterenol, [3H]-DHA RLA” value [2] was 197 nM and the Shift [2] was 4.

B4: compound 67 (peptide)
peptide: RDIIQRMHLRQYEXL
HELM: PEPTIDE1{[ac].R.D.I.I.Q.R.M.H.L.R.Q.Y.E.[Cha].L}$$$$V2.0
SMILES: CC[C@H](C)[C@H](NC(=O)[C@H](CC(=O)O)NC(=O)[C@H](CCCNC(=N)N)NC(C)=O)C(=O)N[C@H](C(=O)N[C@@H](CCC(N)=O)C(=O)N[C@@H](CCCNC(=N)N)C(=O)N[C@@H](CCSC)C(=O)N[C@@H](Cc1c[nH]cn1)C(=O)N[C@@H](CC(C)C)C(=O)N[C@@H](CCCNC(=N)N)C(=O)N[C@@H](CCC(N)=O)C(=O)N[C@@H](Cc1ccc(O)cc1)C(=O)N[C@@H](CCC(=O)O)C(=O)N[C@@H](CC1CCCCC1)C(=O)N[C@@H](CC(C)C)C(=O)O)[C@@H](C)CC
In the case of B4, the “IC50 (nM) of isoproterenol, [3H]-DHA RLA” value [5] is reported as 45.4 nM, the Shift [5] is reported as 17 and the “Shift (averaged)” value [6] is reported as 30.

B5: compound 13 (peptide)
peptide: Ac-FNDCRDIIQR[R5]HL[S5]QYELL-OH
modifications: staple 11-14
SMILES: CC[C@H](C)[C@H](NC(=O)[C@H](CC(=O)O)NC(=O)[C@H](CCCNC(=N)N)NC(=O)[C@H](CS)NC(=O)[C@H](CC(=O)O)NC(=O)[C@H](CC(N)=O)NC(=O)[C@H](Cc1ccccc1)NC(C)=O)C(=O)N[C@H](C(=O)N[C@@H](CCC(N)=O)C(=O)N[C@@H](CCCNC(=N)N)C(=O)N[C@]1(C)CCCC=CCCC[C@@](C)(C(=O)N[C@@H](CCC(N)=O)C(=O)N[C@@H](Cc2ccc(O)cc2)C(=O)N[C@@H](CCC(=O)O)C(=O)N[C@@H](CC(C)C)C(=O)N[C@@H](CC(C)C)C(=O)O)NC(=O)[C@H](CC(C)C)NC(=O)[C@H](Cc2c[nH]cn2)NC1=O)[C@@H](C)CC
With B5 the “Shift (averaged)” value [1] was 3, the “IC50 (nM) of isoproterenol, [3H]-DHA RLA” value [7] was 312 nM and the Shift [7] was 3.

For H-FNDCRD[Pra′]IQR[Azk]HLRQYELL-OH (triazole 7-11) [compound 10], the “Shift (averaged)” value [1] was 7, the “IC50 (nM) of isoproterenol, [3H]-DHA RLA” value [4] was 122 nM and the Shift [4] was 7.

B6: compound 66 (peptide)
peptide: QRMHLRQYEXL
HELM: PEPTIDE1{[ac].Q.R.M.H.L.R.Q.Y.E.[Cha].L}$$$$V2.0
SMILES: CSCC[C@H](NC(=O)[C@H](CCCNC(=N)N)NC(=O)[C@H](CCC(N)=O)NC(C)=O)C(=O)N[C@@H](Cc1c[nH]cn1)C(=O)N[C@@H](CC(C)C)C(=O)N[C@@H](CCCNC(=N)N)C(=O)N[C@@H](CCC(N)=O)C(=O)N[C@@H](Cc1ccc(O)cc1)C(=O)N[C@@H](CCC(=O)O)C(=O)N[C@@H](CC1CCCCC1)C(=O)N[C@@H](CC(C)C)C(=O)O
With B6 the “IC50 (nM) of isoproterenol, [3H]-DHA RLA” value [5] was 551 nM, the Shift [5] was 1 and the “Shift (averaged)” value [6] was 2.

For Ac-FNDCRDEIQRKHLRQYELL-OH [compound 3], the “Shift (averaged)” value [1] was 2, the “IC50 (nM) of isoproterenol, [3H]-DHA RLA” value [2] was 408 nM and the Shift [2] was 2.

For Ac-FNDCRD[Pra′]IQR[Azk]HLRQYELL-OH (triazole 7-11) [compound 11], the “Shift (averaged)” value [1] was 7, the “IC50 (nM) of isoproterenol, [3H]-DHA RLA” value [4] was 116 nM and the Shift [4] was 7.

Ac-FNDCRD[S5]IQR[S5]HLRQYELL-OH (bridges not given here) [compound 6] was tested, and the “Shift (averaged)” value [1] was 9, the “IC50 (nM) of isoproterenol, [3H]-DHA RLA” value [3] was 104 nM and the Shift [3] was 8.

In the case of Ac-FNDCRD[S5]IQR[S5]HLRQYELL-OH (staple 7-11) [compound 8], the “Shift (averaged)” value [1] is reported as 3, the “IC50 (nM) of isoproterenol, [3H]-DHA RLA” value [3] is reported as 373 nM and the Shift [3] is reported as 2.
